Values joined by “and” are separate entries in the source; they are usually repeats but may differ in a detail not shown here. Identical values can stand only once. Marks after values point to notes of the source that are not given here.
Columns and labels:
[1] = target: rat GHRH receptor (GHRHR) in membrane fractions from ischemic rat heart (rat) (UniProt Q02644); assay: radioligand binding: in vitro ligand competition assay with radioiodinated JV-1-42 on ischemic rat heart membrane fractions
[2] = tested on: female 6-month-old Fisher-344 rats, MI induced by coronary artery ligation; assay: Echocardiographic measurements post-MI; assay type: in vivo, rat; settings: echocardiography
Protocol: (§1) MI induced by coronary artery ligation was performed in female 6-month-old Fisher-344 rats as described previously (40). Animals were randomly assigned to receive placebo, GHRH-agonist (GHRH-A [JI-38], 50 μg/kg) or rat recombinant GH (rrGH, 0.5 mg/kg) starting 2 hours post-surgery. All treatment was given subcutaneously twice daily for 4 weeks. The Institutional Animal Care and Use committee of University of Miami approved all protocols and experimental procedures.
Echocardiographic measurements were obtained at baseline, 2 days, 1, 2 and 4 weeks. Echocardiographic assessments were performed in anesthetized rats (2% isoflurane inhalation) using a Vevo-770 echocardiogram (Visual Sonics Inc., Toronto, Ontario, Canada) equipped with a 17.5-MHz transducer. Cardiac dimensions: LV end diastolic (LVEDD), end systolic (LVESD) diameters and fractional shortening (FS) were recorded from M-mode images using averaged measurements from 3 to 5 consecutive cardiac cycles according to the American Society of Echocardiography (1). Ejection fraction (EF) was calculated from bi-dimensional long-axis parasternal views taken through the infarcted area. All images were analyzed using Vevo 770 3.0.0 software (Visual Sonics Inc., Toronto, Ontario, Canada).

[3] = tested on: female 6-month-old Fisher-344 rats, MI induced by coronary artery ligation; assay: Hemodynamic measurements (LV pressure-volume catheterization) post-MI; assay type: in vivo, rat; parameters: SW (stroke work) / Ees (end-systolic elastance): unit not given here; settings: rats post-MI after 4-week treatment; for Heart rate: LV catheterization; for LVEDP / LVEDV: preload
Protocol: as §1
Rats were anesthetized by intramuscular injection of a mixture of ketamine (100 mg/kg), xylazine (20 mg/kg) and acepromazine (10 mg/kg). A 2-F micromanometer tipped catheter (SPR-838, Millar Instruments, Houston, Tex.) was inserted into the right carotid artery and advanced retrograde into the left ventricle. Measurements were calibrated by injecting a hypertonic saline (15%) bolus to determine extra-ventricular conductance; relative volume units were converted to actual volume using the cuvette calibration method (2). All analyses were performed using PVAN 3.0 software (Millar Instruments, Houston, Tex.).

serum GH = assay: Rat serum GH (ELISA) after 4-week treatment; assay type: in vivo; settings: rats post-MI, blood 1-2 hours after last injection, vs. placebo
Protocol: as §1
(§2) At the end of the study, blood was drawn 1-2 hours after the last rrGH or GHRH-A injection and the serum was stored at −80° C. until the measurements were done. All the samples were assayed together and each sample was assayed in duplicate. Rat serum GH was measured using a rat GH Enzyme-Linked Immunosorbent Assay (ELISA) Kit (DSL-10-72100, DSL Webster, Tex.), following the manufacturer's recommendations. This test is an enzymatically amplified “one-step” sandwich-type enzyme immunoassay, where standards, controls and unknown samples are incubated in microtitration wells precoated with the anti-rat GH antibody. The standard curve of the assay was established with samples provided by the manufacturer. Rat serum IGF-I was measured using a rat IGF-I Radioimmunoassay Kit (DSL-2900, DSL Webster, Tex.), after extraction with acid ethanol, following the manufacturer's recommendations. […]

GHRH-R mRNA = assay: Real-time PCR of mRNA for GHRH-R and β-actin in rat heart tissue; assay type: in vivo; settings: normalised to β-actin, Pfaffl method
Protocol: (§3) Total RNA from heart tissue was extracted using Trizol (Invitrogen, Carlsbad, Calif.). The quality of RNA isolated was tested using NanoDrop1000 (Thermo Fisher Scientific Inc., Wilmington, Del.). OD 260/280 ratio was in the range of 1.8 to 2.1 for all samples.
The expression of GHRHR was measured using real-time quantitative PCR as described previously by Havt et al (6).
We evaluated the mRNA expression of rat GHRH receptor (GHRH-R) and β-actin. The probes designed to evaluate the expression of GHRH-R and β-actin are 5′-/Cy5/ACCTCCGACTTTCTCAGTTCCTGTATGCCC/BHQ—2/-3′ and 5′-/6-FAM/ATCCTGCGTCTGGACCTGGCTGGC/BHQ—1/-3′, respectively. Gene specific primer sequences were the following: GHRH-R (sense) 5′-[…]-3′ and 5′-TGGTTTCCCTGGGCCTTGG-3′ (antisense) with a product size of 110 bp, β-actin: (sense) 5′-GGGTTACGCGCTCCCTCAT-3′ and 5′-[…]-3′ (antisense) with a product size of 133 bp.
All real-time PCR reactions were performed in the iCycler iQ™ Real-Time PCR Detection System (Bio-Rad, Hercules, Calif.). Thermal cycling conditions comprised an initial denaturation step at 95° C. for 3 min followed by 45 cycles at 95° C. for 30 sec and an annealing temperature at 60° C. for GHRH-R and β-actin for 1 min. As final steps, we included two cycles: one at 95° C. and the other at 60° C., both for 1 min. […]

serum IGF-I = assay: Rat serum IGF-I (radioimmunoassay) after 4-week treatment; assay type: in vivo; settings: rats post-MI, blood 1-2 hours after last injection, vs. placebo
Protocol: as §1, §2

[4] = tested on: female 6-month-old Fisher-344 rats, MI induced by coronary artery ligation; assay: Histopathology: MI size, fibrosis, capillary density, myocyte width; assay type: in vivo, rat; settings: rats post-MI after 4-week treatment
Protocol: as §1
(§4) At the end of the study, rat hearts were harvested for further analysis. Hearts were weighted and the basal portion, free of fibrotic tissue, was flash-frozen in liquid nitrogen for total RNA isolation and protein analysis. Remaining tissue was fixed with 10% formalin for histology.
Slides were prepared with H&E and Masson's trichrome stain to assess cardiac structure and the presence and extent of fibrosis and myocardial scar, respectively. The size of MI was determined using NIH Image version 1.30v for Windows to quantify the percentage area of fibrosis. An image-processing software (Imaging Processing Toolkit 5.0, Reindeer Graphics, Asheville, N.C.) and Adobe Photoshop CS2 (San Jose, Calif.) were used to assess the slides as previously described with minor modifications (3). The percentage of fibrosis was calculated by using the following formula: % fibrosis=fibrotic area/(fibrotic area+healthy area)
H&E stained sections of hearts from midventricular level were used to measure the myocyte width. At least 35-50 cardiomyocytes were counted and averaged at the level of the nuclei in non-infarcted remote myocardium.

[5] = tested on: Bcl2 and Bax gene expression; assay: Real-time PCR of pro-apoptotic and anti-apoptotic genes (Bax, Bcl2) in rat heart; assay type: in vivo; settings: rt-qPCR
Protocol: as §3
The monitoring of pro-apoptotic and anti-apoptotic genes was also assessed by real time PCR. First-strand cDNA was synthesized from 1 μg total RNA using the High-Capacity cDNA Reverse-Transcription Kit (Applied Biosystems, Inc., Foster City, Calif., USA), and ribosomal 18S RNA served as the housekeeping gene. We used TaqMan probes labeled with 6-carboxyfluorescein (FAM) for real-time RT-PCR reactions, according to manufacturer's protocol (Applied Biosystems, Inc., Foster City, Calif., USA). Data were analyzed by the threshold cycle (Ct) relative quantification method.

[6] = tested on: female 6-month-old Fisher-344 rats, MI induced by coronary artery ligation; assay: Body weight and heart weight after MI, 4-week treatment; assay type: in vivo, rat; settings: mean±SEM; for Heart weight (HW) / body weight (BW) after MI: rats post-MI; for Heart weight (HW): after 4-week treatment; for body weight (BW) after MI: week 4, s.c. twice daily 4 weeks, GHRH-A 50 μg/kg or rrGH 0.5 mg/kg; for body weight (BW), baseline: rats, baseline before MI and treatment
Protocol: as §1, §4

[7] = tested on: Ki67 positive cells and c-kit+ cardiac precursor cells in rat heart; assay: Immunostaining for Ki67 and c-kit positive cells in heart sections; assay type: in vivo; settings: remote zone, relative to placebo and GHRH-A
Protocol: as §1
Paraffin sections were deparaffinized and rehydrated by immersion in xylene and a graded series of ethanols. Antigen retrieval was performed by a heat-induced method with citrate buffer (Dako, Carpinteria, Calif.). After blocking with 10% normal donkey serum, sections were incubated with a primary antibody (table S3), at 37° C. for 1 hour, followed by application of secondary antibody. Omission of the primary antibodies on parallel sections was used as negative control. Nuclei were counterstained with DAPI (Invitrogen, Carlsbad, Calif.). The total numbers of positively-stained cells were quantified per slide to calculate the number of cells per unit volume (mm^3) on each sample. Morphometric analysis was performed by using Adobe Photoshop CS3 (San Jose, Calif.)

UniProt Q02644, sequence (Q02644 23-464): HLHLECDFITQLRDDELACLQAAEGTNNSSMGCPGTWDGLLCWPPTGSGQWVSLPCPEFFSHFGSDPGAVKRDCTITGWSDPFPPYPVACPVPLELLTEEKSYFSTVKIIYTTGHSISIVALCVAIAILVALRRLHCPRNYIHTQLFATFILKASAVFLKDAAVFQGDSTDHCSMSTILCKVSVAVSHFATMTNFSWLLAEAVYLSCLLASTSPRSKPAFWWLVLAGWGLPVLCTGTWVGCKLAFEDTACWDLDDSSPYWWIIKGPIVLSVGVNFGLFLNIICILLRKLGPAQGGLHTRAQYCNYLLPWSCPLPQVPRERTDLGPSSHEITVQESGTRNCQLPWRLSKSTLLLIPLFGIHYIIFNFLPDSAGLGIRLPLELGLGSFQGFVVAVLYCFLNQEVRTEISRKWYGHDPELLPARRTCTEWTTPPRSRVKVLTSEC

| Molecule | EF ([2]; 4 weeks (W4) post-MI) | FS ([2]; 4 weeks (W4) post-MI) | LVEDD ([2]; 4 weeks (W4) post-MI) | EF ([2]; baseline (BSL)) | FS ([2]; baseline (BSL)) | LVEDD ([2]; baseline (BSL)) | LVESD ([2]; baseline (BSL)) | Heart rate [3] | LVESP ([3]; afterload) | Ees (end-systolic elastance) ([3]; contractility) | LVEDP [3] | LVEDV [3] | serum GH (serum GH) | Ratio (GHRH-R gene expression level in treatment group compared to placebo group) (GHRH-R mRNA) | serum IGF-I (serum IGF-I) | capillary density [4] | Heart weight (HW) [6] | body weight (BW) after MI [6] | body weight (BW), baseline [6] | further results |
| --- | --- | --- | --- | --- | --- | --- | --- | --- | --- | --- | --- | --- | --- | --- | --- | --- | --- | --- | --- | --- |
| GHRH antagonist JV-1-42 (radioiodinated derivative) (peptide) | – | – | – | – | – | – | – | – | – | – | – | – | – | – | – | – | – | – | – | Bmax (fmol/mg protein) [1]: 51.3; Kd [1]: 860 pM |
| [Dat^1, Gln^8, Orn^12,21, Abu^15, Nle^27, Asp^28, Agm^29]hGH-RH(1-29)NH2 [GHRH-A] | 47±4% and 47.2 ± 4.0 ¶ % | 28.7±3.3% | 7.7 ± 0.2 mm | 85.7 ± 1.6% | 53.1 ± 1.0% | 6.3 ± 0.2 mm | 2.9 ± 0.1 mm | 270 ± 17 bpm | 83 ± 1.1 mmHg | 0.19 ± 0.02 | 8 ± 0.5 mmHg | 421 ± 26 µL | did not increase | 1.91 | did not increase | 0.006±0.001 /mm^2 | 695 ± 26 mg | 225 ± 3 g | 231 ± 5 g | Ea (arterial elastance) ([3]; afterload): 0.5 ± 0.004 mmHg/μl; expression of anti-apoptotic gene (Bcl2) [5]: upregulated; expression of pro-apoptotic gene (Bax) [5]: trended to be downregulated; ratio between Bax and Bcl2 expression ([5]; in comparison to placebo or rrGH): significantly reduced |
| rrGH: Rat recombinant GH supplied by National Hormone and Pituitary Program (NHPP) (protein, UniProt P01244 27-216, looked up) Somatotropin: FPAMPLSSLFANAVLRAQHLHQLAADTYKEFERAYIPEGQRYSIQNAQAAFCFSETIPAPTGKEEAQQRTDMELLRFSLLLIQSWLGPVQFLSRIFTNSLMFGTSDRVYEKLKDLEEGIQALMQELEDGSPRIGQILKQTYDKFDANMRSDDALLKNYGLLSCFKKDLHKAETYLRVMKCRRFAESSCAF | 44±2% and 44.3 ± 2.3% | 20.3±1.3% | 8.6 ± 0.1 mm | 89.2 ± 0.4% | 58.2 ± 0.7% | 5.9 ± 0.1 mm | 2.3 ± 0.1 mm | 247 ± 6.8 bpm | 91 ± 2.3 mmHg | 0.33 ± 0.12 | 10 ± 1.8 mmHg | 351 ± 38 µL | 679 ± 196 ng/mL | 2.10 * | 1052 ± 91 ng/mL | 0.02±0.002 /mm^2 | 850 ± 38 mg | 256 ± 3 g | 217 ± 4 g | LVESD ([2]; 4 weeks (W4) post-MI): 6.8 ± 0.2 mm; PRSW ([3]; contractility): 48 ± 5.0 mmHg; dP/dtmax ([3]; contractility): 6243 ± 313 mmHg/s; dP/dtmax_EDV ([3]; contractility): 17.5 ± 4.3 mmHg/s/l; dP/dtmin ([3]; lusitropy): 4028 ± 334 mmHg/s; CO (cardiac output) ([3]; pressure-volume derived): 22.5 ± 3.4 mL/min; EF ([3]; pressure-volume derived): 26.2 ± 1.7%; SV (stroke volume) ([3]; pressure-volume derived): 98 ± 13 µL; SW (stroke work) ([3]; pressure-volume derived): 6920 ± 790; Ea/Ees ([3]; ratio between arterial elastance and end-systolic elastance): 4.4 ± 0.6; TAU (G) ([3]; relaxation time constant, Glantz method): 19.9 ± 0.4 ms; expression of Ki67 positive cells [7]: higher; MI size (infarct size) ([4]; Masson's trichrome): 45±2%; percentage of ventricular fibrosis [4]: 27±1% |
